The nature of this series: protein stability index of a GFP-peptide fusion (GPS, HEK-293T) (PSI 1-6); higher = more stable.
[1] abbreviates: treatment: DMSO, c terminus: a fixed tail appended.
Where [2] appears, read: treatment: MLN4924 1 uM, 8 h, c terminus: a fixed tail appended.
[3] abbreviates: treatment: DMSO, c terminus: native.
Where [4] appears, read: treatment: MLN4924 1 uM, 8 h, c terminus: native.

Drawing on the supplement of paper PMC10567573, this text covers protein stability index for 72 sequences.

± gives the standard deviation.
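Also: 24-mer peptide tiles fused after GFP, lentivirally expressed, FACS-sorted into six equal bins by GFP/DsRed ratio, decoded by Illumina sequencing, PSI is the read-weighted mean bin number.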

Take TAHLYSLLQTQHALGDAFADLSQK [ARFIP2]: the protein stability index is, setting by setting: under setting [1], 2.18 ± 0.25; under setting [2], 2.22 ± 0.23.

Regarding TASGDCYTFGSNQHGQLGTNTRRG [NEK8], the protein stability index is, setting by setting: under setting [1], 4.56 ± 0.14; under setting [2], 4.67 ± 0.15.

In the case of TDIKDESCCMTEEIFGPVTCVVPF [ALDH8A1], the protein stability index runs as follows: under setting [1], 3.53 ± 0.23; under setting [2], 3.48 ± 0.3.

With TFPDLESEFQAALSRKVAELVHFL [MAGEA3], the protein stability index runs as follows: under setting [1], 2.34 ± 0.37; under setting [2], 2.45 ± 0.33.

Regarding TFPHSISAKNTSHPGSGTKVQFNL [SASS6], the protein stability index worked out at 2.89 ± 0.33 under setting [1] and 3 ± 0.46 under setting [2].

Consider TGKAPSPRAAHACATVGNRGFVFG [KLHDC2], for which the protein stability index by setting is: under setting [1], 2.38 ± 0.11; under setting [2], 2.21 ± 0.19.

Take TGVYPRCLHASQWPVCAACPVRKF [BRF1]: the protein stability index under setting [1] worked out at 2.49 ± 0.17 and the protein stability index under setting [2] is 2.45 ± 0.24.

In the case of THEVMGPKKKHLDYLIQATNETNV [SNAP91], the protein stability index is, setting by setting: under setting [1], 3.85 ± 0.32; under setting [2], 3.69 ± 0.64.

In the case of THLLMGLASGRIILILEGGYNLTS [HDAC6], the protein stability index is, setting by setting: under setting [1], 2.89 ± 0.46; under setting [2], 3.02 ± 0.58.

As to TKLLSGSYDCTVKLWDPVDGSVVR [WDR88], the protein stability index under setting [1] came out at 3.1 ± 0.33 and the protein stability index under setting [2] is 3.19 ± 0.26.

As for TKRSSRNPVFQDSWDTESSGSDSG [FAM104A], the protein stability index under setting [1] was found to be 5.3 ± 0.28 and the protein stability index under setting [2] turned out to be 5.22 ± 0.055.

As to TKWVDYSNKYGFGYQLSDHTVGVL [PLK2], the protein stability index worked out at 2.19 ± 0.33 under setting [1] and 2.08 ± 0.19 under setting [2].

As for TLALEALVQLRGRLTSQDWERVHL [ALG2], the protein stability index runs as follows: under setting [1], 2.24 ± 0.27; under setting [2], 2.32 ± 0.24.

Regarding TLGGKAFHITNDEPIPFWTFLSRI [NSDHL], the protein stability index is 2.19 ± 0.096 under setting [1] and 2.28 ± 0.22 under setting [2].

Turning to TLHGVVNESTVCLMSYERRQILHL [TENT5D], the protein stability index under setting [1] is 2.35 ± 0.54 and the protein stability index under setting [2] was found to be 2.44 ± 0.4.

Regarding TLQHWPHIIRIGDLKPTGEIPKQV [DENND6A], the protein stability index by setting is: under setting [1], 2.3 ± 0.29; under setting [2], 2.74 ± 0.24.

On to TLRPDQQLHIFNTLRSHLIDKGML [CDS2], for which the protein stability index is, setting by setting: under setting [1], 2.14 ± 0.28; under setting [2], 2.24 ± 0.13.

As for TLSPHQYHSVHGVGMVPEWSDNS [TBX5], the protein stability index was determined as 4.01 ± 0.29 under setting [3] and 3.8 ± 0.14 under setting [4].

Take TLVNFHLKRSIPQVSPVRRAPSRR [CPN1]: the protein stability index was 2.88 ± 0.28 under setting [1] and 3.13 ± 0.23 under setting [2].

As to TNEAACLLDNPLCADVLFILQDQE [RHOBTB1], the protein stability index is 3.66 ± 0.24 under setting [1] and 3.82 ± 0.24 under setting [2].

The sequence TNNNIKQRLIKKVQEAVLDKWVND [GOLPH3] gave a protein stability index under setting [1] of 2.37 ± 0.4 and a protein stability index under setting [2] of 2.36 ± 0.31.

In the case of TNSTPLRAACFDGHLEVVRYLVGE [FEM1A], the protein stability index is 2.32 ± 0.18 under setting [1] and 2.4 ± 0.31 under setting [2].

TNVRLQPAATWNLEEKRLTWRLPD [FCHO1]: the protein stability index turned out to be 3.27 ± 0.32 under setting [1] and 3.34 ± 0.24 under setting [2].

As for TPATPEDPAPLWGPPPAQGSPGDG [EMID1], the protein stability index is, setting by setting: under setting [1], 5.3 ± 0.48; under setting [2], 5.31 ± 0.22.

For TPFQSVPPTVSQTPVIAATPVPTI [BRD3], the protein stability index by setting is: under setting [1], 4.06 ± 0.24; under setting [2], 3.94 ± 0.13.

On to TQIIGEQNARLAELERKLREVMES [FBXO28], for which the protein stability index runs as follows: under setting [1], 3.71 ± 0.22; under setting [2], 3.68 ± 0.12.

In the case of TREAVTEILGIEPDREKGFHLDVE [TSN], the protein stability index by setting is: under setting [1], 4.62 ± 0.063; under setting [2], 4.64 ± 0.12.

In the case of TRFTEEYQLFEELGKGAFSVVRRC [CAMK2A], the protein stability index under setting [1] came out at 2.63 ± 0.39 and the protein stability index under setting [2] worked out at 2.54 ± 0.26.

TSDDNLLKNIELFDKLALRFHGRL [KCTD13] came in with a protein stability index under setting [1] of 2.48 ± 0.2 and a protein stability index under setting [2] of 2.46 ± 0.4.

Consider TSECPSDKDKSPESHKAKNESWIK [C10orf62], for which the protein stability index came to 3.58 ± 0.65 under setting [1] and 4.18 ± 0.7 under setting [2].

For the sequence TSEGTLELQQRNPKAERLRWSPAQ [ZNF232], the protein stability index amounted to 4.27 ± 0.19 under setting [1] and 4.25 ± 0.15 under setting [2].

Turning to TSGVAAVQDWYHFHYVDILALLPA [SCNN1D], the protein stability index is, setting by setting: under setting [1], 2.42 ± 0.44; under setting [2], 2.35 ± 0.24.

TSKNSSTQDPSQPNSTKNQSLPKA [LCOR] came in with a protein stability index under setting [1] of 5.31 ± 0.16 and a protein stability index under setting [2] of 5.44 ± 0.12.

Regarding TSPVYRGSSSGPSSPARVSTTPR [MTUS2], the protein stability index was found to be 4.45 ± 0.2 under setting [3] and 4.48 ± 0.13 under setting [4].

As to TSSASVTTTSNASGRRTSDVRRP [KRT13], the protein stability index by setting is: under setting [3], 2.88 ± 0.77; under setting [4], 3.58 ± 0.76.

TTTVTAVTAEVDLFGDAFAASPGE [SNAP91]: the protein stability index by setting is: under setting [1], 4.54 ± 0.13; under setting [2], 4.59 ± 0.28.

For TVASMMHRQETVECLKKFNARRKL [CAMK2B], the protein stability index runs as follows: under setting [1], 3.41 ± 0.4; under setting [2], 3.74 ± 0.33.

For TVEQGCQILDSLSYMRNENVISEL [FBXO39], the protein stability index is, setting by setting: under setting [1], 3.5 ± 0.43; under setting [2], 3.41 ± 0.42.

Take TYSKFQPQSPDFLDITNPKAVLEN [UFD1]: the protein stability index under setting [1] amounted to 3.92 ± 0.18 and the protein stability index under setting [2] was found to be 4.24 ± 0.076.

In the case of VAACTKEIDTQGRHLAHSMLQRAI [C10orf62], the protein stability index is, setting by setting: under setting [1], 2.86 ± 0.41; under setting [2], 2.9 ± 0.14.

Regarding VADGLCCVLTTPCLTQSTAAPAVR [SLA], the protein stability index under setting [1] came out at 2.5 ± 0.54 and the protein stability index under setting [2] came out at 2.77 ± 0.2.

In the case of VAELFCRRCRRCVCALCPVLGAHR [TRIM14], the protein stability index by setting is: under setting [1], 2.25 ± 0.1; under setting [2], 2.49 ± 0.39.

For the sequence VAGEFSEPVTLETPAFMFRLDAST [FSD1], the protein stability index under setting [1] was found to be 3.1 ± 0.27 and the protein stability index under setting [2] came out at 3.16 ± 0.19.

With VAGVLPDIEQFFNIGDSSSGLIQT [SPNS1], the protein stability index runs as follows: under setting [1], 3.16 ± 0.25; under setting [2], 3.32 ± 0.43.

Turning to VAIFGPPNTLYEGGYFKAHIKFPI [UBE2R2], the protein stability index under setting [1] stood at 3.24 ± 1 and the protein stability index under setting [2] is 2.95 ± 0.97.

As to VAQTSLEEFNVLEMEVMRRQLYAV [FATE1], the protein stability index is 2.31 ± 0.37 under setting [1] and 2.21 ± 0.44 under setting [2].

Regarding VAVDSNLRVRELQRKVDGIQKAYD [CCDC89], the protein stability index stood at 3.85 ± 0.21 under setting [1] and 3.94 ± 0.39 under setting [2].

Take VCALCPVLGAHRGHPVGLALEAAV [TRIM14]: the protein stability index is, setting by setting: under setting [1], 2.57 ± 0.34; under setting [2], 2.37 ± 0.6.

VCTDTDRWSLISLSNKNGKNVELK [TENT5C]: the protein stability index is, setting by setting: under setting [1], 3.46 ± 0.27; under setting [2], 3.57 ± 0.17.

With VEAMYCYLRCIQSEVSFEGAYGNL [SMG5], the protein stability index amounted to 3.13 ± 0.35 under setting [1] and 3.12 ± 0.63 under setting [2].

Take VEMDIYTALKKWMFLQLVPSWNGS [GMCL1]: the protein stability index is, setting by setting: under setting [1], 2.65 ± 0.092; under setting [2], 2.66 ± 0.65.

As for VEWAKYIPAFCELPLDDQVALLRA [HNF4A], the protein stability index reads like this: under setting [1], 2.42 ± 0.64; under setting [2], 2.44 ± 0.42.

As to VFGRLRDENGRPYSPSQYALQYAG [NFE2L1], the protein stability index reads like this: under setting [1], 2.86 ± 0.45; under setting [2], 2.65 ± 0.36.

In the case of VFLASGAVSVMKKCRKLEDPQSSS [SLC19A2], the protein stability index runs as follows: under setting [1], 2.81 ± 0.043; under setting [2], 2.98 ± 0.15.

Take VFPIKHYQDKIRPYIQLPSHSNIT [TRIB1]: the protein stability index is 2.5 ± 0.22 under setting [1] and 2.62 ± 0.22 under setting [2].

Turning to VFSTMAGLEEADAEVSVISEADPQ [FBF1], the protein stability index reads like this: under setting [1], 5.18 ± 0.36; under setting [2], 5.26 ± 0.25.

For the sequence VGEVLKDIETACKLLNITADPMDW [SPDEF], the protein stability index is, setting by setting: under setting [1], 2.71 ± 0.17; under setting [2], 2.51 ± 0.27.

In turn, VGKTRLICARACNATLTQYQLLAT [RHOBTB2] displayed a protein stability index under setting [1] of 2.28 ± 0.34 and a protein stability index under setting [2] of 2.17 ± 0.31.

On to VGLVTNQLSHIKAKIRAKIPGTGA [RTN2], for which the protein stability index is, setting by setting: under setting [1], 2.79 ± 0.16; under setting [2], 2.9 ± 0.11.

On to VGSGYRMSLVKRRFATGMYLVSC [FCHO1], for which the protein stability index by setting is: under setting [3], 2.89 ± 0.34; under setting [4], 3.03 ± 0.4.

On to VHHLPLSTEKVVQETVLVEERRVV [EPB41L3], for which the protein stability index reads like this: under setting [1], 4.3 ± 0.14; under setting [2], 4.43 ± 0.27.

VHVIGVEEPSVGASMLFDIREST [ZNF8]: the protein stability index is, setting by setting: under setting [3], 2.3 ± 0.27; under setting [4], 2.38 ± 0.17.

As to VIAINYNEKIYELRVMETKPDKAV [UFD1], the protein stability index by setting is: under setting [1], 1.89 ± 0.27; under setting [2], 2.39 ± 0.24.

VIRLKQEQHVHNEKSVLKEVSHPF [PRKX]: the protein stability index is, setting by setting: under setting [1], 3.36 ± 0.062; under setting [2], 3.62 ± 0.36.

Turning to VIRWIAHDTEIRKVHMKDVMSALW [GAN], the protein stability index is, setting by setting: under setting [1], 2.38 ± 0.63; under setting [2], 2.08 ± 0.2.

For the sequence VLEYRRTNFEGPPRLKEDQPWMVI [FSD1], the protein stability index is, setting by setting: under setting [1], 2.12 ± 0.44; under setting [2], 2.35 ± 0.39.

As for VLLMKDRETNKSRGFAFVTFESPA [RBMX], the protein stability index came to 2.06 ± 0.47 under setting [1] and 2.2 ± 0.41 under setting [2].

For the sequence VLRREISELRTKVQEQQKQLQDQD [FBXO28], the protein stability index is, setting by setting: under setting [1], 4.73 ± 0.17; under setting [2], 4.66 ± 0.23.

Regarding VLRTWRTNLPKGACALLLTSVDHD [DLC1], the protein stability index stood at 2.26 ± 0.66 under setting [1] and 2.44 ± 0.39 under setting [2].

For the sequence VLVILISIVIFCLETLPEFRDEKD [KCNA3], the protein stability index was found to be 2.54 ± 0.81 under setting [1] and 2.25 ± 0.88 under setting [2].

Regarding VPAAGGPAPKRGYSSEMKTEDELR [AUH], the protein stability index reads like this: under setting [1], 5.53 ± 0.68; under setting [2], 5.9 ± 0.071.

For VPECRLAEDLGNLWENTRFTDCSF [SPOPL], the protein stability index was found to be 2.74 ± 0.34 under setting [1] and 3.21 ± 0.44 under setting [2].
